Where a chain is given by its changes, count along the chain named. Numbers in names are those of the source.
B1: MBP fused to the WD40 domain of PALB2 (amino acids 859-1186), wild type (domain or fragment)
chain: SELKNPSGSCSVDVSAMFWERAGCKEPCIITACEDVVSLWKALDAWQWEKLYTWHFAEVPVLQIVPVPDVYNLVCVALGNLEIREIRALFCSSDDESEKQVLLKSGNIKAVLGLTKRRLVSSSGTLSDQQVEVMTFAEDGGGKENQFLMPPEETILTFAEVQGMQEALLGTTIMNNIVIWNLKTGQLLKKMHIDDSYQASVCHKAYSEMGLLFIVLSHPCAKESESLRSPVFQLIVINPKTTLSVGVMLYCLPPGQAGRFLEGDVKDHCAAAILTSGTIAIWDLLLGQCTALLPPVSDQHWSFVKWSGTDSHLLAGQKDGNIFVYHYS
B2: MBP-PALB2 WD40 domain L939W (domain or fragment)
chain: B1 chain with L81W
B3: MBP-PALB2 WD40 domain T1030I (domain or fragment)
chain: B1 chain with T172I

The binders below were run against T1, His-tagged RAD51C (human, UniProt O43502 1-376) (assay: pull-down).
T1 sequence: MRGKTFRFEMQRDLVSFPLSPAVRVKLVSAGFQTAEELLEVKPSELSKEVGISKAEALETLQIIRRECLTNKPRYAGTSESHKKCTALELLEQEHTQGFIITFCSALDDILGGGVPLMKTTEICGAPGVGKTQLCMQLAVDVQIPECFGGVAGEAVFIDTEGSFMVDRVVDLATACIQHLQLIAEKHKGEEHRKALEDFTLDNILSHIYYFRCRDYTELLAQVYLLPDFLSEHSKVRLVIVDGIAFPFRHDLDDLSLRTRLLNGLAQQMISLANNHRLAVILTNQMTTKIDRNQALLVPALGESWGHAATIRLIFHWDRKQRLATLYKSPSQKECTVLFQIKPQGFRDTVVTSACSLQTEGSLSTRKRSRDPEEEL

Binding result, binds:
B1
B2
B3

Source: PMC3994186 (Oncogene, 2013)
